The experiment addresses T1, biotinylated Human PD-1/PDCD1 (Acro Biosystems, Cat# PD1-H82E4) (human, UniProt Q15116 25-167, biotinylated).
T1 construct: Bought reagent; whole mature entry named
The experiment is described as follows: Fab ELISA, Fab captured by anti-Fd(CH1) antibody, 5 nM biotinylated human PD-1, streptavidin-HRP chemiluminescence. As to the method: For follow-up screening, plasmid DNA was prepared from overnight culture of the TG-1 Escherichia coli cells and the pIX gene was excised by NheI/SpeI digestion. After ligation, the DNA was transformed into TG-1 cells and grown on LB/Agar plates overnight. The next day, colonies were picked, grown overnight, and the cultures used for (i) colony sequencing of the V- regions, and (ii) induction of Fab production. For Fab production, the overnight culture was diluted 100 folds in new media and grown for 5-6 hours at 37° C. Fab production was induced by the addition of fresh media containing IPTG and the cultures were grown overnight at 30° C. The following day, the cultures were spun down and the supernatants, containing the soluble Fab proteins, were used for Fab ELISA. For the ELISA, the soluble Fab proteins were captured onto plates by a polyclonal anti-Fd(CH1) antibody. After washing and blocking, biotinylated Human PD-1/PDCD1 was added at 5 nM concentration. […] The biotinylated human PD-1 was detected by HRP-conjugated streptavidin with chemiluminescence measured in a plate reader.

T1 sequence (Q15116 25-167 limits assumed): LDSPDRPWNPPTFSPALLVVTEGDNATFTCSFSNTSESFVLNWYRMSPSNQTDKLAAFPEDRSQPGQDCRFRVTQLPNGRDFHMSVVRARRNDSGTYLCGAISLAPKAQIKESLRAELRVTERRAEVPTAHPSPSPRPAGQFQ

B1: PD1B878 Fab variant with light chain PD1L652 (S30P) (Fab, V domains shown)
VH: QVQLVQSGSELKKPGASVKVSCKASGYTFTDYSMHWVRQAPGQGLEWMGWINIETGEPTYAQGFTGRFVFSLDTSVSTAYLQISSLKAEDTAVYFCARDYYGTYFYAMDYWGQGTLVTVSS
VL: EIVLTQSPATLSLSPGERATLSCTASSSVPSSYLHWYQQKPGLAPRLLIYSTSNLASGIPDRFSGSGSGTDYTLTISRLEPEDFAVYYCHQYHRSPLTFGQGTKLEIK
notes: Soluble Fab of the non-combinatorial CDR scan
For the molecule B1, the “fold change in ELISA binding versus the parental Fab” value is 10 fold.

(Values after patent US20230340155A1 (published 2023).)
